Patent US20250152742A1, “COMPOSITIONS AND METHODS FOR NEUROLOGICAL DISEASES” (Trames Bio, Inc., priority 2022, published 2025)
Residue numbers refer to the chain shown, from its start. In names and notes the source's numbering stands.

Experiments:
[1] = system: engineered receptors and wildtype nAchRa7 receptor expressed in HEK293 cells; assay: Whole cell manual patch clamp electrophysiology, EC50, HEK293 cells; format: cell-based, human; details: for EC50: ligand TC-5619, HEK293 cell line, read-out: Manual patch clamp based EC50, TC-5619
Method: (§1) Using whole cell manual patch clamp electrophysiology in HEK293 cells, rat DRG neurons and rat hippocampal neurons, the EC50 of the various engineered receptors disclosed herein to Ach and non-native ligands was measured using the Hill equation with peak current measurements from escalating doses of ligand. The rheobase shift was also measured in rat DRG neurons, which reflects the efficacy of the receptors. To calculate the rheobase, first, the amount of current that can produce an action potential was determined. Then the ligand was added, followed by a step wise increase in the current injected up to 700 pA.
(§2) For manual patch clamp experiments, Cells plated on coverslips were visualized at 10x and 40x on an inverted fluorescence microscope (Olympus). Recordings were made with an Axopatch 200B amplifier and Digidata 1550B (Molecular Devices) at RT using 3-6 MOhm glass patch electrodes (Sutter, BF150-86-10). Unless otherwise stated, recordings were made in extracellular solution (ECS) containing: 140 mM sodium chloride, 4 mM potassium chloride, 1 mM magnesium chloride, 2 mM calcium chloride, 10 mM HEPES, and 10 mM D-(+)-glucose (pH=7.3 with sodium hydroxide, osmolarity=305-315 mOsm). An 8-line reservoir (AutoMate Scientific) in combination with an 8-channel zero-dead-volume perfusion pencil (AutoMate Scientific) was used for perfusion. Data was acquired using pClamp software (Molecular Devices). Traces were either analyzed in Clampfit (Molecular Devices) or using custom Python code. Plotting and statistics were performed in GraphPad Prism.
For dose-response, ligand-induced currents were recorded in voltage clamp mode. For HEK cell experiments, recordings took place in the normal ECS with a cesium-based internal solution containing: 140 mM cesium chloride, 5 mM potassium fluoride, 2 mM Calcium chloride, 2 mM magnesium chloride, 10 mM HEPES, and 10 mM EGTA (pH=7.2 with cesium hydroxide, osmolarity=290-295 mOsm). For DRG neuron experiments, cells were patched in normal ECS and then switched to an NMDG-based ECS to prevent endogenous cation currents, containing: 145 mM N-methyl-D-glucamine, 4 mM potassium chloride, 0.5 mM magnesium chloride, 0.5 mM calcium chloride, 10 mM HEPES, and 10 mM D-(+)-glucose (pH=7.4 with hydrochloric acid, osmolarity=305-315mOsm). […] Capacitance and series resistance were compensated. Drugs tested include acetycholine chloride and other synthetic compounds. Drug doses were applied for 1-10 sec until the peak of the current was observed, and washes occurred for at least 2 min between dose applications. The holding current was subtracted from the peak to find the current amplitude.
Cell culture: HEK 293 cells were routinely subcultured in DMEM with 10% fetal bovine serum (ThermoFisher Scientific). […]

[2] = system: engineered receptors expressed in rat DRG neurons; assay: Manual patch clamp ligand-induced chloride currents / EC50, rat DRG neurons; format: cell-based; details: for EC50: ligand TC-5619, Rat DRG Neurons, read-out: Manual patch clamp based EC50, TC-5619
Method: as §1, §2
For dose-response, ligand-induced currents were recorded in voltage clamp mode. For HEK cell experiments, recordings took place in the normal ECS with a cesium-based internal solution containing: 140 mM cesium chloride, 5 mM potassium fluoride, 2 mM Calcium chloride, 2 mM magnesium chloride, 10 mM HEPES, and 10 mM EGTA (pH=7.2 with cesium hydroxide, osmolarity=290-295 mOsm). […]

rat DRG neurons = assay: Rheobase shift / evoked action potentials, rat DRG neurons (current clamp); format: cell-based; details: for Rheobase Shift; Rat DRG Neurons, Baseline: no ligand, neurons expressing the receptor; for Rheobase Shift; Rat DRG Neurons, +TC-5619 @ EC90: ligand TC-5619 at EC90
Method: as §1
DRG rheobase experiments were performed in current clamp mode using a potassium-based internal solution containing: 100 mM potassium D-gluconate, 28 mM potassium chloride, 1 mM magnesium chloride hexahydrate, 5 mM magnesium ATP, 10 mM HEPES, and 0.5 mM EGTA (pH=7.2 with potassium hydroxide, osmolarity=290-295 mOsm, calculated liquid junction potential=−13.5 mV). To measure DRG input resistance and rheobase, 500 ms current steps (−200 pA to 700 pA) were applied the membrane in the presence and absence of a compound. No holding current was applied to the membrane for cells included in the final datasets. Data were acquired at 10 kHz, with Bessel filter at 2 kHz and series resistance compensation at 100%. Rheobase was defined as the smallest depolarizing current injection required to cause an action potential to fire in the cell. In a subset of cells, the rheobase was ambiguous, since the action potential appeared to be graded in amplitude. In these cases, a […] of the trace clarified the rheobase. Input resistance was measured from the negative current injections, calculated as the difference in membrane potential at steady state divided by the current injection amplitude and then averaged across the four negative current steps for each recording. Resting membrane potential was measured from the first 100 ms of each sweep, averaged for each recording, and corrected for liquid junction potential. One-way ANOVA with multiple comparisons was used to test for significance of difference in rheobase and input resistance between baseline, drug, and wash conditions.
DRG neurons: DRG rheobase experiments were performed in current clamp mode using a potassium-based internal solution containing (in mM): 100 potassium D-gluconate (G4500), 28 potassium chloride (P9333), 1 magnesium chloride hexahydrate (M2670), 5 magnesium ATP (A9187), 10 HEPES (54457), and 0.5 EGTA (3777) (pH=7.2 with potassium hydroxide, osmolarity=290-295 mOsm, calculated liquid junction potential=−13.5 mV). To measure DRG input resistance and rheobase, 500 ms current steps (−200 pA to 700 pA) were applied the membrane (−400 pA to 700 pA in an early version of the protocol) in the presence and absence of a compound. No holding current was applied to the membrane for cells included in the final datasets. Data were acquired at 10 kHz, with Bessel filter at 2 kHz and series resistance compensation at 100%. Rheobase was defined as the smallest depolarizing current injection required to cause an action potential to fire in the cell. In a subset of cells, the rheobase was ambiguous, since the action potential appeared to be graded in amplitude. In these cases, a […] of the trace clarified the rheobase. Input resistance was measured from the negative current injections, calculated as the difference in membrane potential at steady state divided by the current injection amplitude and then averaged across the four negative current steps for each recording. Resting membrane potential was measured from the first 100 ms of each sweep, averaged for each recording, and corrected for liquid junction potential. One-way ANOVA with multiple comparisons was used to test for significance of difference in rheobase and input resistance between baseline, drug, and wash conditions.

[3] = HEK293 cells and cultured rat DRG sensory neurons

B1: CODA806: engineered receptor: Y115D, L131Q in SEQ ID NO: 33 (Chemogenic receptor-11) (protein)
chain: MRCSPGGVWLALAASLLHVSLQGEFQRKLYKELVKNYNPLERPVANDSQPLTVYFSLSLLQIMDVDEKNQVLTTNIWLQMSWTDHYLQWNVSEYPGVKTVRFPDGQIWKPDILLDNSADERFDATFHTNVQVNSSGHCQYLPPGIFKSSCPMDLKNFPMDVQTCKLKFGSWSYGGWSLDLQMQEADISGYIPNGEWDLVGIPGKRSERFYECCKEPYPDVTFTVTMRRRMGYYLIQMYIPSLLIVILSWISFWINMDAAPARVGLGITTVLTMTTQSSGSRASLPKVSYVKAIDIWMAVCLLFVFSALLEYAAVNFVSRQHKELLRFRRKRRHHKSPMLNLFQEDEAGEGRFNFSAYGMGPACLQAKDGISVKGANNSNTTNPPPAPSKSPEEMRKLFIQRAKKIDKISRIGFPMAFLIFNMFYWIIYKIVRREDVHNQ
modifications: synthetic sequence of chimeric LGIC
- sensitivity to RG-3487 compared to wildtype nAchRa7 receptor [1, 3]: way more sensitive to RG-3487
- sensitivity to acetylcholine compared to wildtype nAchRa7 receptor [1, 3]: essentially insensitive to acetylcholine
- chloride current on application of RG-3487 (SA-2) ([2]; cultured adult rat DRG neurons, not observed in non-transduced cells, FIG. 3): generated chloride current in a dose dependent manner
- effect on evoked action potentials (rat DRG neurons; Acetylcholine at 3.0 mM, transduced neurons, n=4, FIG. 4B): no effect
- current injection evoked action potentials (rat DRG neurons; RG-3487 (SA-2) at 3 μM, transduced rat DRG neurons, FIG. 4A): reversibly inhibits current injection evoked action potentials
- increase in the current required to elicit action potentials (rat DRG neurons; RG-3487 (SA-2) at 3 μM, transduced rat DRG neurons, n=7): ~3 x
- Rheobase Shift; Rat DRG Neurons, Baseline (rat DRG neurons): 163 ± 28 pA
- Rheobase Shift; Rat DRG Neurons, Facinicline/RG-3487 @ EC90 (rat DRG neurons; ligand Facinicline/RG-3487 at EC90): 625 ± 35 pA

B2: CODA1025: engineered receptor: R101F, L131G in SEQ ID NO: 33 (protein)
chain: B1 chain with R101F, D115Y, Q131G
modifications: synthetic sequence of chimeric LGIC
- Rheobase Shift; Rat DRG Neurons, Baseline (rat DRG neurons): 140 ± 19 pA
- Rheobase Shift; Rat DRG Neurons, +TC-5619 @ EC90 (rat DRG neurons): 560 ± 72 pA

B3: CODA1039: engineered receptor: Y115E, Y210W in SEQ ID NO: 33 (protein)
chain: B1 chain with D115E, Q131L, Y210W
modifications: synthetic sequence of chimeric LGIC
- Rheobase Shift; Rat DRG Neurons, Baseline (rat DRG neurons): 88 ± 9 pA
- Rheobase Shift; Rat DRG Neurons, +TC-5619 @ EC90 (rat DRG neurons): 453 ± 58 pA

B4: CODA1027: engineered receptor: R101F, L131D in SEQ ID NO: 33 (protein)
chain: B1 chain with R101F, D115Y, Q131D
modifications: synthetic sequence of chimeric LGIC
- Rheobase Shift; Rat DRG Neurons, Baseline (rat DRG neurons): 100 ± 23 pA
- Rheobase Shift; Rat DRG Neurons, +TC-5619 @ EC90 (rat DRG neurons): 638 ± 63 pA

B5: COAD1056 (protein)
chain: B1 chain with R101F, D115E, Q131L, Y210W
modifications: synthetic sequence of chimeric LGIC
- EC50 [1]: 96 nM
- EC50 [2]: 116 nM
- Rheobase Shift; Rat DRG Neurons, Baseline (rat DRG neurons): 114 ± 12 pA
- Rheobase Shift; Rat DRG Neurons, +TC-5619 @ EC90 (rat DRG neurons): 632 ± 43 pA

B6: CODA1054: engineered receptor: R101M, L131F in SEQ ID NO: 33 (protein)
chain: B1 chain with R101M, D115Y, Q131F
modifications: synthetic sequence of chimeric LGIC
- Rheobase Shift; Rat DRG Neurons, Baseline (rat DRG neurons): 105 ± 13 pA
- Rheobase Shift; Rat DRG Neurons, +TC-5619 @ EC90 (rat DRG neurons): 673 ± 27 pA

B7: CODA1048: engineered receptor: R101F, Y210F in SEQ ID NO: 33 (protein)
chain: B1 chain with R101F, D115Y, Q131L, Y210F
modifications: synthetic sequence of chimeric LGIC
- Rheobase Shift; Rat DRG Neurons, Baseline (rat DRG neurons): 120 ± 19 pA
- Rheobase Shift; Rat DRG Neurons, +TC-5619 @ EC90 (rat DRG neurons): 590 ± 46 pA

B8: CODA1045: engineered receptor: R101W, Y210V in SEQ ID NO: 33 (protein)
chain: B1 chain with R101W, D115Y, Q131L, Y210V
modifications: synthetic sequence of chimeric LGIC
- Rheobase Shift; Rat DRG Neurons, Baseline (rat DRG neurons): 141 ± 22 pA
- Rheobase Shift; Rat DRG Neurons, +TC-5619 @ EC90 (rat DRG neurons): 700 ± 0 pA

B9: COAD1055 (protein)
chain: B1 chain with R101W, D115E, Q131L, Y210W
modifications: synthetic sequence of chimeric LGIC
- EC50 [1]: 16 nM
- EC50 [2]: 56 nM
- Rheobase Shift; Rat DRG Neurons, Baseline (rat DRG neurons): 83 ± 7 pA
- Rheobase Shift; Rat DRG Neurons, +TC-5619 @ EC90 (rat DRG neurons): 562 ± 35 pA
